What was measured:
[1] = molecular target: chimeric antibody hJAR5 (mouse variable, human constant); assay: BLI
[2] = molecular target: mAb JAR5 (mouse) (mouse); assay: BLI
Sequence of mAb JAR5 (mouse) (mouse) (heavy, as listed by the source, chain 1 of 2, other chains not shown): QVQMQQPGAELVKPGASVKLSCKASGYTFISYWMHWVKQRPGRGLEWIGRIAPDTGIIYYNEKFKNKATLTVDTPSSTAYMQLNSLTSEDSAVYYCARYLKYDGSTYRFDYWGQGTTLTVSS

Sequence of chimeric antibody hJAR5 (mouse variable, human constant) (heavy, as listed by the source, chain 1 of 2, other chains not shown): as above

Substance	Kd [1] [nM]	koff [1] [s⁻¹]	kon [1] [M⁻¹ s⁻¹]	Kd [2] [nM]	koff [2] [s⁻¹]	kon [2] [M⁻¹ s⁻¹]
fHbp CC4 (natural protein)	6.92	0.00561	811000	–	–	–
fHbp CC1 (natural protein)	3.86	0.00268	693000	–	–	–
fHbp CC8 (natural protein)	3.58	0.002	558000	–	–	–
fHbp CC9 (natural protein)	7.66	0.00118	154000	–	–	–
fHbp CC5 (natural protein)	6.49	0.00446	687000	–	–	–
fHbp m000006 (from UniProt E6MV22 20-274) (natural protein)	0.922	0.000499	541000	< 0.001	< 1e-07	642000
fHbp CC3 (natural protein)	1.2	0.00241	2.01e+06	–	–	–
fHbp CC2 (natural protein)	0.425	0.000266	625000	–	–	–

From paper PMC12319226 (Frontiers in Bioinformatics, 2025)
